Results reported in US20140274782A1, “AFFINITY REAGENTS AND METHODS FOR DETECTION, PURIFICATION, AND PROTEOMIC ANALYSIS OF METHYLATED PROTEINS” (The Board of Trustees of the Leland Stanford Junior …, priority 2013, published 2014).

T1: G9a and GLP (Homo sapiens, UniProt Q96KQ7+Q9H9B1)
T1 sequence (Q96KQ7 2-1210 limits assumed): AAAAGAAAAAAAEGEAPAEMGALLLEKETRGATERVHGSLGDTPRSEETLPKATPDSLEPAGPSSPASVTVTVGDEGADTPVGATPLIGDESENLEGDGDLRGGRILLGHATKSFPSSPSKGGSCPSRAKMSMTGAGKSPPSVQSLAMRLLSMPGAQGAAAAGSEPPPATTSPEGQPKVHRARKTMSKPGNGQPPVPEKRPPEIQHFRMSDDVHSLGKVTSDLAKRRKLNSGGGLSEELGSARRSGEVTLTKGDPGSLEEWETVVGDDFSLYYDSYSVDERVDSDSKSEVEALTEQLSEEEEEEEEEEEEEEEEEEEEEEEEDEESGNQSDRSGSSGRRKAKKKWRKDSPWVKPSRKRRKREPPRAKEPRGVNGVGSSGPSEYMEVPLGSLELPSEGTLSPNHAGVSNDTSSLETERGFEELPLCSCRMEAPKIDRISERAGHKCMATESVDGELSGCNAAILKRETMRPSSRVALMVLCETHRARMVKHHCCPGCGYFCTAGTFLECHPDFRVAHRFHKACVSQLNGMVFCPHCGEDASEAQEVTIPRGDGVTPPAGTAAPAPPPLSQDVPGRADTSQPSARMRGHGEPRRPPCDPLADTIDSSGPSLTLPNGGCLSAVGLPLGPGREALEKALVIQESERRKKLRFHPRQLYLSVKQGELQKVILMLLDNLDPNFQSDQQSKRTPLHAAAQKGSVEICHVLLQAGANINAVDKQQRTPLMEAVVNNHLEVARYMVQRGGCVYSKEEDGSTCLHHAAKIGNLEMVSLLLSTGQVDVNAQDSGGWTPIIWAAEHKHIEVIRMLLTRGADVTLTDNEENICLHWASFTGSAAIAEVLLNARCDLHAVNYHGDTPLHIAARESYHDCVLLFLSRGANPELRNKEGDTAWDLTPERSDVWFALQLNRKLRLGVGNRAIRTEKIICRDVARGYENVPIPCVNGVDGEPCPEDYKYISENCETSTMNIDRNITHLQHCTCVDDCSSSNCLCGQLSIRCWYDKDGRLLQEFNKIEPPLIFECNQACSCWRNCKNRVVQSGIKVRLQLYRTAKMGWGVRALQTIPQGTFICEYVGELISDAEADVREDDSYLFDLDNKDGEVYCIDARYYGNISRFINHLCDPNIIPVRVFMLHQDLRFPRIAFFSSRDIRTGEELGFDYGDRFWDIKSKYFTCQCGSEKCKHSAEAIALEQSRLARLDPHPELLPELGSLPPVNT
T1 sequence (Q9H9B1 2-1298 limits assumed): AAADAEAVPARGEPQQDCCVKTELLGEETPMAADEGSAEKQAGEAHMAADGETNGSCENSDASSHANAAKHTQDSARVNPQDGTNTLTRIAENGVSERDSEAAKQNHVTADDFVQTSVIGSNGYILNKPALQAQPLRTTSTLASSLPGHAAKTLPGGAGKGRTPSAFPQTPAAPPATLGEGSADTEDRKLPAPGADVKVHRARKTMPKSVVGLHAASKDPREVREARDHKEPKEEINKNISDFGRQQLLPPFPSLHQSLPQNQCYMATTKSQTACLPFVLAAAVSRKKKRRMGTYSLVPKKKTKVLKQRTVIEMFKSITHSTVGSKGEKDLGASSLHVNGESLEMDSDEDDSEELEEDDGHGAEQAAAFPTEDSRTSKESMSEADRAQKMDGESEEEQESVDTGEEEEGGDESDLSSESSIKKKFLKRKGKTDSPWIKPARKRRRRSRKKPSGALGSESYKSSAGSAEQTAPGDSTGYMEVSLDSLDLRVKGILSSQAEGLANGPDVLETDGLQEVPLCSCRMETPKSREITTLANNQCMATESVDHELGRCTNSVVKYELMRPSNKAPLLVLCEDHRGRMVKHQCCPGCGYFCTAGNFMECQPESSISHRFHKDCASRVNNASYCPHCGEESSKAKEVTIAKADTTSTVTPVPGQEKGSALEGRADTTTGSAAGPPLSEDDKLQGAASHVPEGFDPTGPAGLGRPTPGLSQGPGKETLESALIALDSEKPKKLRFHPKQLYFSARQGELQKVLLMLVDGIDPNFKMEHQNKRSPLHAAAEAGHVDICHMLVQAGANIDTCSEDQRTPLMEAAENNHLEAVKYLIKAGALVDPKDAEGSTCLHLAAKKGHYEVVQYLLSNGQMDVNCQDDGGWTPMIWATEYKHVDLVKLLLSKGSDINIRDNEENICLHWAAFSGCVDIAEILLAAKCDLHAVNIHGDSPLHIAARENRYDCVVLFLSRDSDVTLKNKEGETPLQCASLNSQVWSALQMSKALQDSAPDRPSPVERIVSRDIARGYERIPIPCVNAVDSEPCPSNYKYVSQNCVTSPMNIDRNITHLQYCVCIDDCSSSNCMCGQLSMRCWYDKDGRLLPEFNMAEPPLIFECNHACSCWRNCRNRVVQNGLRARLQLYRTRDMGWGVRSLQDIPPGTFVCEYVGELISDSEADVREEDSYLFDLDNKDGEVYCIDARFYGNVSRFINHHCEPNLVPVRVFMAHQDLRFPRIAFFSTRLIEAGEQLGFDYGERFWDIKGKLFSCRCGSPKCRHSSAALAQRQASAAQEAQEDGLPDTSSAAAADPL


Assays:
3×MBT domain of L3MBTL1 = assay: Triple SILAC pull-down, 3xMBT/3xMBTD355N ratio (cytoplasmic, nuclear and chromatin fractions of 293T cells); type: binding, human; settings: SILAC ratio, pull-down by 3xMBT vs 3xMBTD355N, 293T cells;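 also: proteins quantified with MaxQuant, requiring at least two unique peptides and quantification in both label directions, normalized to the mean of proteins from a digested loading control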
G9a and GLP = target: T1, G9a and GLP; assay: Triple SILAC pull-down after UNC0638 treatment of 293T cells, DMSO/UNC0638 ratio of protein captured by 3×MBT; type: cell-based; design: cells were treated for 24 hours with UNC0638 at 2.5 μM or DMSO vehicle control; endogenous in cells; host or cells: HEK 293T; settings: SILAC ratio of protein captured by 3xMBT, 293T cells treated 24 hours with UNC0638 at 2.5 μM or DMSO;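 also: mass spectrometry (Q-Exactive) SILAC quantitation, DMSO/UNC0638 ratio computed after subtracting 3×MBTD355N mutant pull-down background, only proteins with at least twofold 3×MBT over mutant signal considered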

| Molecule | Protein Ratios DMSO/UNC0638 (G9a and GLP) | Protein Ratios 3xMBT/D355N (3×MBT domain of L3MBTL1) |
| --- | --- | --- |
| Protein syndesmos (protein, UniProt Q9BRJ7 1-211, looked up) Tudor-interacting repair …: MSTAAVPELKQISRVEAMRLGPGWSHSCHAMLYAANPGQLFGRIPMRFSVLMQMRFDGLLGFPGGFVDRRFWSLEDGLNRVLGLGLGCLRLTEADYLSSHLTEGPHRVVAHLYARQLTLEQLHAVEISAVHSRDHGLEVLGLVRVPLYTQKDRVGGFPNFLSNAFVSTAKCQLLFALKVLNMMPEEKLVEALAAATEKQKKALEKLLPASS | 1.3 | 3.5 |
| Cytoplasmic FMR1-interacting protein 1 (protein, UniProt Q7L576 1-1253, looked up) Cytoplasmic FMR1-interacting …: MAAQVTLEDALSNVDLLEELPLPDQQPCIEPPPSSLLYQPNFNTNFEDRNAFVTGIARYIEQATVHSSMNEMLEEGQEYAVMLYTWRSCSRAIPQVKCNEQPNRVEIYEKTVEVLEPEVTKLMNFMYFQRNAIERFCGEVRRLCHAERRKDFVSEAYLITLGKFINMFAVLDELKNMKCSVKNDHSAYKRAAQFLRKMADPQSIQESQNLSMFLANHNKITQSLQQQLEVISGYEELLADIVNLCVDYYENRMYLTPSEKHMLLKVMGFGLYLMDGSVSNIYKLDAKKRINLSKIDKYFKQLQVVPLFGDMQIELARYIKTSAHYEENKSRWTCTSSGSSPQYNICEQMIQIREDHMRFISELARYSNSEVVTGSGRQEAQKTDAEYRKLFDLALQGLQLLSQWSAHVMEVYSWKLVHPTDKYSNKDCPDSAEEYERATRYNYTSEEKFALVEVIAMIKGLQVLMGRMESVFNHAIRHTVYAALQDFSQVTLREPLRQAIKKKKNVIQSVLQAIRKTVCDWETGHEPFNDPALRGEKDPKSGFDIKVPRRAVGPSSTQLYMVRTMLESLIADKSGSKKTLRSSLEGPTILDIEKFHRESFFYTHLINFSETLQQCCDLSQLWFREFFLELTMGRRIQFPIEMSMPWILTDHILETKEASMMEYVLYSLDLYNDSAHYALTRFNKQFLYDEIEAEVNLCFDQFVYKLADQIFAYYKVMAGSLLLDKRLRSECKNQGATIHLPPSNRYETLLKQRHVQLLGRSIDLNRLITQRVSAAMYKSLELAIGRFESEDLTSIVELDGLLEINRMTHKLLSRYLTLDGFDAMFREANHNVSAPYGRITLHVFWELNYDFLPNYCYNGSTNRFVRTVLPFSQEFQRDKQPNAQPQYLHGSKALNLAYSSIYGSYRNFVGPPHFQVICRLLGYQGIAVVMEELLKVVKSLLQGTILQYVKTLMEVMPKICRLPRHEYGSPGILEFFHHQLKDIVEYAELKTVCFQNLREVGNAILFCLLIEQSLSLEEVCDLLHAAPFQNILPRVHVKEGERLDAKMKRLESKYAPLHLVPLIERLGTPQQIAIAREGDLLTKERLCCGLSMFEVILTRIRSFLDDPIWRGPLPSNGVMHVDECVEFHRLWSAMQFVYCIPVGTHEFTVEQCFGDGLHWAGCMIIVLLGQQRRFAVLDFCYHLLKVQKHDGKDEIIKNVPLKKMVERIRKFQILNDEIITILDKYLKSGDGEGTPVEHVRCFQPPIHQSLASS | 1.4 | 3.4 |

Further lines, with some results ahead:

| Protein Ratios DMSO/UNC0638 (G9a and GLP) | Molecule | Protein Ratios 3xMBT/D355N (3×MBT domain of L3MBTL1) |
| --- | --- | --- |
| 1.4 | Probable ATP-dependent RNA helicase DDX46 (protein, UniProt Q7L014 2-1031, looked up) Probable ATP-dependent RNA …: GRESRHYRKRSASRGRSGSRSRSRSPSDKRSKRGDDRRSRSRDRDRRRERSRSRDKRRSRSRDRKRLRRSRSRERDRSRERRRSRSRDRRRSRSRSRGRRSRSSSPGNKSKKTENRSRSKEKTDGGESSKEKKKDKDDKEDEKEKDAGNFDQNKLEEEMRKRKERVEKWREEQRKKAMENIGELKKEIEEMKQGKKWSLEDDDDDEDDPAEAEKEGNEMEGEELDPLDAYMEEVKEEVKKFNMRSVKGGGGNEKKSGPTVTKVVTVVTTKKAVVDSDKKKGELMENDQDAMEYSSEEEEVDLQTALTGYQTKQRKLLEPVDHGKIEYEPFRKNFYVEVPELAKMSQEEVNVFRLEMEGITVKGKGCPKPIKSWVQCGISMKILNSLKKHGYEKPTPIQTQAIPAIMSGRDLIGIAKTGSGKTIAFLLPMFRHIMDQRSLEEGEGPIAVIMTPTRELALQITKECKKFSKTLGLRVVCVYGGTGISEQIAELKRGAEIIVCTPGRMIDMLAANSGRVTNLRRVTYVVLDEADRMFDMGFEPQVMRIVDNVRPDRQTVMFSATFPRAMEALARRILSKPIEVQVGGRSVVCSDVEQQVIVIEEEKKFLKLLELLGHYQESGSVIIFVDKQEHADGLLKDLMRASYPCMSLHGGIDQYDRDSIINDFKNGTCKLLVATSVAARGLDVKHLILVVNYSCPNHYEDYVHRAGRTGRAGNKGYAYTFITEDQARYAGDIIKALELSGTAVPPDLEKLWSDFKDQQKAEGKIIKKSSGFSGKGFKFDETEQALANERKKLQKAALGLQDSDDEDAAVDIDEQIESMFNSKKRVKDMAAPGTSSVPAPTAGNAEKLEIAKRLALRINAQKNLGIESQDVMQQATNAILRGGTILAPTVSAKTIAEQLAEKINAKLNYVPLEKQEEERQDGGQNESFKRYEEELEINDFPQTARWKVTSKEALQRISEYSEAAITIRGTYFPPGKEPKEGERKIYLAIESANELAVQKAKAEITRLIKEELIRLQNSYQPTNKGRYKVL | 5.2 |
| 1.3 | Probable ATP-dependent RNA helicase DDX23 (protein, UniProt Q9BUQ8 1-820, looked up) Probable ATP-dependent RNA …: MAGELADKKDRDASPSKEERKRSRTPDRERDRDRDRKSSPSKDRKRHRSRDRRRGGSRSRSRSRSKSAERERRHKERERDKERDRNKKDRDRDKDGHRRDKDRKRSSLSPGRGKDFKSRKDRDSKKDEEDEHGDKKPKAQPLSLEELLAKKKAEEEAEAKPKFLSKAEREAEALKRRQQEVEERQRMLEEERKKRKQFQDLGRKMLEDPQERERRERRERMERETNGNEDEEGRQKIREEKDKSKELHAIKERYLGGIKKRRRTRHLNDRKFVFEWDASEDTSIDYNPLYKERHQVQLLGRGFIAGIDLKQQKREQSRFYGDLMEKRRTLEEKEQEEARLRKLRKKEAKQRWDDRHWSQKKLDEMTDRDWRIFREDYSITTKGGKIPNPIRSWKDSSLPPHILEVIDKCGYKEPTPIQRQAIPIGLQNRDIIGVAETGSGKTAAFLIPLLVWITTLPKIDRIEESDQGPYAIILAPTRELAQQIEEETIKFGKPLGIRTVAVIGGISREDQGFRLRMGCEIVIATPGRLIDVLENRYLVLSRCTYVVLDEADRMIDMGFEPDVQKILEHMPVSNQKPDTDEAEDPEKMLANFESGKHKYRQTVMFTATMPPAVERLARSYLRRPAVVYIGSAGKPHERVEQKVFLMSESEKRKKLLAILEQGFDPPIIIFVNQKKGCDVLAKSLEKMGYNACTLHGGKGQEQREFALSNLKAGAKDILVATDVAGRGIDIQDVSMVVNYDMAKNIEDYIHRIGRTGRAGKSGVAITFLTKEDSAVFYELKQAILESPVSSCPPELANHPDAQHKPGTILTKKRREETIFA | 4.8 |
